Laboratory results taken from the supplement of paper PMC10567573.

B1: HDAC6 (parent)
chain: DLMETTQYMNEGELRVLADTYDSV

Variants of: B1
Test: protein stability index of a GFP-peptide fusion (GPS, HEK-293T) (PSI 1-6); higher = more stable
Conditions: c terminus: a fixed tail appended
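Also: lentivirally expressed fusions sorted by FACS into six bins by GFP to DsRed ratio, PSI derived from sequencing read proportions per bin multiplied by bin number.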

| Variant | protein stability index |
| --- | --- |
| KLMETTQYMNEGELRVLADTYDSV [D1K] | 2.28 |
| FLMETTQYMNEGELRVLADTYDSV [D1F] | 2.46 |
| YLMETTQYMNEGELRVLADTYDSV [D1Y] | 2.04 |
| CLMETTQYMNEGELRVLADTYDSV [D1C] | 2.48 |
| NLMETTQYMNEGELRVLADTYDSV [D1N] | 2.18 |
| VLMETTQYMNEGELRVLADTYDSV [D1V] | 1.25 |
| DLGETTQYMNEGELRVLADTYDSV [M3G] | 3.84 |
| DLEETTQYMNEGELRVLADTYDSV [M3E] | 3.74 |
| DLCETTQYMNEGELRVLADTYDSV [M3C] | 1.69 |
| DLSETTQYMNEGELRVLADTYDSV [M3S] | 3.48 |
| DLTETTQYMNEGELRVLADTYDSV [M3T] | 3.15 |
| DLIETTQYMNEGELRVLADTYDSV [M3I] | 2.13 |
| DLKETTQYMNEGELRVLADTYDSV [M3K] | 4.13 |
| DLYETTQYMNEGELRVLADTYDSV [M3Y] | 2.74 |
| DLFETTQYMNEGELRVLADTYDSV [M3F] | 2.22 |
| DLDETTQYMNEGELRVLADTYDSV [M3D] | 4.6 |
| DLHETTQYMNEGELRVLADTYDSV [M3H] | 3.91 |
| DLRETTQYMNEGELRVLADTYDSV [M3R] | 3.77 |
| DLVETTQYMNEGELRVLADTYDSV [M3V] | 2.2 |
| DLNETTQYMNEGELRVLADTYDSV [M3N] | 4.55 |
| DLPETTQYMNEGELRVLADTYDSV [M3P] | 4.65 |
| DLWETTQYMNEGELRVLADTYDSV [M3W] | 2 |
| DLAETTQYMNEGELRVLADTYDSV [M3A] | 3.05 |
| DLQETTQYMNEGELRVLADTYDSV [M3Q] | 3.29 |

| Variant | protein stability index |
| --- | --- |
| DLLETTQYMNEGELRVLADTYDSV [M3L] | 1.91 |
| DLMETTQHMNEGELRVLADTYDSV [Y8H] | 4.78 |
| DLMETTQLMNEGELRVLADTYDSV [Y8L] | 4.27 |
| DLMETTQNMNEGELRVLADTYDSV [Y8N] | 4.67 |
| DLMETTQRMNEGELRVLADTYDSV [Y8R] | 3.66 |
| DLMETTQEMNEGELRVLADTYDSV [Y8E] | 4.21 |
| DLMETTQTMNEGELRVLADTYDSV [Y8T] | 4.36 |
| DLMETTQDMNEGELRVLADTYDSV [Y8D] | 4.62 |
| DLMETTQMMNEGELRVLADTYDSV [Y8M] | 4.29 |
| DLMETTQWMNEGELRVLADTYDSV [Y8W] | 1.89 |
| DLMETTQPMNEGELRVLADTYDSV [Y8P] | 5.51 |
| DLMETTQFMNEGELRVLADTYDSV [Y8F] | 1.65 |
| DLMETTQKMNEGELRVLADTYDSV [Y8K] | 4.56 |
| DLMETTQSMNEGELRVLADTYDSV [Y8S] | 5.09 |
| DLMETTQIMNEGELRVLADTYDSV [Y8I] | 4.19 |
| DLMETTQCMNEGELRVLADTYDSV [Y8C] | 4.07 |
| DLMETTQQMNEGELRVLADTYDSV [Y8Q] | 4.22 |
| DLMETTQAMNEGELRVLADTYDSV [Y8A] | 3.88 |
| DLMETTQGMNEGELRVLADTYDSV [Y8G] | 4.5 |
| DLMETTQYMHEGELRVLADTYDSV [N10H] | 2.57 |
| DLMETTQYMSEGELRVLADTYDSV [N10S] | 1.74 |
| DLMETTQYMMEGELRVLADTYDSV [N10M] | 4.08 |
| DLMETTQYMDEGELRVLADTYDSV [N10D] | 3.95 |
| DLMETTQYMAEGELRVLADTYDSV [N10A] | 1.98 |

| Variant | protein stability index |
| --- | --- |
| DLMETTQYMFEGELRVLADTYDSV [N10F] | 1.05 |
| DLMETTQYMCEGELRVLADTYDSV [N10C] | 1.88 |
| DLMETTQYMQEGELRVLADTYDSV [N10Q] | 2.07 |
| DLMETTQYMYEGELRVLADTYDSV [N10Y] | 3.32 |
| DLMETTQYMTEGELRVLADTYDSV [N10T] | 2.21 |
| DLMETTQYMPEGELRVLADTYDSV [N10P] | 4.49 |
| DLMETTQYMVEGELRVLADTYDSV [N10V] | 1.8 |
| DLMETTQYMREGELRVLADTYDSV [N10R] | 1.75 |
| DLMETTQYMGEGELRVLADTYDSV [N10G] | 3.14 |
| DLMETTQYMEEGELRVLADTYDSV [N10E] | 2.91 |
| DPMETTQYMNEGELRVLADTYDSV [L2P] | 4.8 |
| DRMETTQYMNEGELRVLADTYDSV [L2R] | 4.52 |
| DFMETTQYMNEGELRVLADTYDSV [L2F] | 3.49 |
| DGMETTQYMNEGELRVLADTYDSV [L2G] | 3.22 |
| DQMETTQYMNEGELRVLADTYDSV [L2Q] | 4.68 |
| DYMETTQYMNEGELRVLADTYDSV [L2Y] | 3.88 |
| DMMETTQYMNEGELRVLADTYDSV [L2M] | 3.77 |
| DDMETTQYMNEGELRVLADTYDSV [L2D] | 5.2 |
| DWMETTQYMNEGELRVLADTYDSV [L2W] | 3.31 |
| DKMETTQYMNEGELRVLADTYDSV [L2K] | 4.96 |
| DIMETTQYMNEGELRVLADTYDSV [L2I] | 1.55 |
| DHMETTQYMNEGELRVLADTYDSV [L2H] | 5.04 |
| DCMETTQYMNEGELRVLADTYDSV [L2C] | 3.12 |
| DNMETTQYMNEGELRVLADTYDSV [L2N] | 4.32 |

| Variant | protein stability index |
| --- | --- |
| DTMETTQYMNEGELRVLADTYDSV [L2T] | 4.52 |
| DEMETTQYMNEGELRVLADTYDSV [L2E] | 4.57 |
| DAMETTQYMNEGELRVLADTYDSV [L2A] | 2.33 |
| DVMETTQYMNEGELRVLADTYDSV [L2V] | 1.62 |
| DLMEQTQYMNEGELRVLADTYDSV [T5Q] | 1.99 |
| DLMEVTQYMNEGELRVLADTYDSV [T5V] | 1.5 |
| DLMEFTQYMNEGELRVLADTYDSV [T5F] | 2.03 |
| DLMEDTQYMNEGELRVLADTYDSV [T5D] | 4.43 |
| DLMENTQYMNEGELRVLADTYDSV [T5N] | 2.32 |
| DLMEYTQYMNEGELRVLADTYDSV [T5Y] | 1.38 |
| DLMEKTQYMNEGELRVLADTYDSV [T5K] | 2.9 |
| DLMERTQYMNEGELRVLADTYDSV [T5R] | 2.56 |
| DLMEITQYMNEGELRVLADTYDSV [T5I] | 2.67 |
| DLMEETQYMNEGELRVLADTYDSV [T5E] | 2.54 |
| DLMEPTQYMNEGELRVLADTYDSV [T5P] | 1.72 |
| DLMEHTQYMNEGELRVLADTYDSV [T5H] | 1.89 |
| DLMECTQYMNEGELRVLADTYDSV [T5C] | 2.38 |
| DLMEMTQYMNEGELRVLADTYDSV [T5M] | 1.71 |
| DLMESTQYMNEGELRVLADTYDSV [T5S] | 1.96 |
| DLMEWTQYMNEGELRVLADTYDSV [T5W] | 1.61 |
| DLMEGTQYMNEGELRVLADTYDSV [T5G] | 3.72 |
| DLMELTQYMNEGELRVLADTYDSV [T5L] | 1.39 |
